The numbers were not newly measured in patent US20220017621A1, “Combination Therapy for Cancer” (Merck Patent GmbH, priority 2016, published 2022), which cites them from elsewhere.

The data set addresses TGFβ1 (Homo sapiens, UniProt P01137). The conditions noted are these: binding of TGFβ1.

Sequence of TGFβ1 (P01137 279-390 limits assumed, species assumed): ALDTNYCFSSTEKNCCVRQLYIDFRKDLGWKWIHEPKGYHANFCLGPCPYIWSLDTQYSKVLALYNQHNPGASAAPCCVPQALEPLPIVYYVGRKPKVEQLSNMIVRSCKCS

B1: recombinant soluble TGFβRII: recombinant soluble extracellular domain of TGFβRII, from the literature (Lin et al.) (protein, UniProt P37173 23-166, looked up)
extracellular domain: TIPPHVQKSVNNDMIVTDNNGAVKFPQLCKFCDVRFSTCDNQKSCMSNCSITSICEKPQEVCVAVWRKNDENITLETVCHDPKLPYHDFILEDAASPKCIMKEKKKPGETFFMCSCSSDECNDNIIFSEEYNTSNPDLLLVIFQ
modifications: extracellular domain
For B1, the dissociation constant (Kd) was 0.2 nM.

One may read the Kd as the constant that tells how readily two partners part at equilibrium.
